In US20230203158A1 (FLAGSHIP PIONEERING INNOVATIONS VII, published 2023):
Substitutions are numbered along the chain they refer to. Numbers in names are those of the source. One block for each binder: values may come before it.

Assays:
[1] = target: T1, mouse CDH17 (NCBI accession NP 062727.1) with a c-Myc epitope tag at the C terminus, transiently expressed in … (mouse, UniProt Q9R100 26-827); assay: flow cytometry on RAW 264.7 cells transiently expressing mouse CDH17
T1 construct: whole, on cells; also called cadherin 17
T1 sequence (looked up): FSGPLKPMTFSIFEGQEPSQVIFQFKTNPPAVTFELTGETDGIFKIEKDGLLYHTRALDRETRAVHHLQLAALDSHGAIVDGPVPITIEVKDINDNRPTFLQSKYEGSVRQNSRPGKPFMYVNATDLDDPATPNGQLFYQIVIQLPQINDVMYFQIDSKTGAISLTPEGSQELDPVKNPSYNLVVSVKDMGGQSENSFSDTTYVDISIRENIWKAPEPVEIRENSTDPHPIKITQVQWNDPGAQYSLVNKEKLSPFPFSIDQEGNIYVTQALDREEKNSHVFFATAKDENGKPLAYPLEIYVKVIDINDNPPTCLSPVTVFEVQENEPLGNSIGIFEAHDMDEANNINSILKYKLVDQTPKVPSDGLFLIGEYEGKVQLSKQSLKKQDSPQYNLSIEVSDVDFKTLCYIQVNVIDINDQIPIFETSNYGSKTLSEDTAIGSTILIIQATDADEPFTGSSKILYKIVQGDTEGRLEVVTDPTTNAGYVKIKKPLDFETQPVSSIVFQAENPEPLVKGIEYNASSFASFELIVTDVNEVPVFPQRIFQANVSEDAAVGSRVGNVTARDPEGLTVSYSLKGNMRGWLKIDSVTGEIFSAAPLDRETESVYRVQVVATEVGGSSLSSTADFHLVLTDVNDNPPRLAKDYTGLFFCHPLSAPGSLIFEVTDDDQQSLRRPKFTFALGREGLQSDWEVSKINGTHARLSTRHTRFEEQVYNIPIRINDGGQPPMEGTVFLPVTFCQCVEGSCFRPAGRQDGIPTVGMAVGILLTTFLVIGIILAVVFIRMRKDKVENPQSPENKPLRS
Excerpt: To confirm binding activity and specificity, mouse CDH17 (NCBI accession NP 062727.1) with a c-Myc epitope tag at the protein C terminus was transiently expressed in RAW 264.7 cells using LIPOFECTAMINE™ 3000 (ThermoFisher Scientific) according to the manufacturer's protocol.

[2] = target: IL-10 receptor of HEK-BLUE IL-10 cells (the cells express all the components of the IL-10 signaling pathway); assay: cell-based or functional assay
[3] = target: T2, DSG1 stably expressed on HEK-BLUE IL-10 cells (called human DSG1; DSG1 gene NP_034209.2) (human, UniProt Q02413 50-1049); assay: cell-based or functional assay
T2 sequence (looked up): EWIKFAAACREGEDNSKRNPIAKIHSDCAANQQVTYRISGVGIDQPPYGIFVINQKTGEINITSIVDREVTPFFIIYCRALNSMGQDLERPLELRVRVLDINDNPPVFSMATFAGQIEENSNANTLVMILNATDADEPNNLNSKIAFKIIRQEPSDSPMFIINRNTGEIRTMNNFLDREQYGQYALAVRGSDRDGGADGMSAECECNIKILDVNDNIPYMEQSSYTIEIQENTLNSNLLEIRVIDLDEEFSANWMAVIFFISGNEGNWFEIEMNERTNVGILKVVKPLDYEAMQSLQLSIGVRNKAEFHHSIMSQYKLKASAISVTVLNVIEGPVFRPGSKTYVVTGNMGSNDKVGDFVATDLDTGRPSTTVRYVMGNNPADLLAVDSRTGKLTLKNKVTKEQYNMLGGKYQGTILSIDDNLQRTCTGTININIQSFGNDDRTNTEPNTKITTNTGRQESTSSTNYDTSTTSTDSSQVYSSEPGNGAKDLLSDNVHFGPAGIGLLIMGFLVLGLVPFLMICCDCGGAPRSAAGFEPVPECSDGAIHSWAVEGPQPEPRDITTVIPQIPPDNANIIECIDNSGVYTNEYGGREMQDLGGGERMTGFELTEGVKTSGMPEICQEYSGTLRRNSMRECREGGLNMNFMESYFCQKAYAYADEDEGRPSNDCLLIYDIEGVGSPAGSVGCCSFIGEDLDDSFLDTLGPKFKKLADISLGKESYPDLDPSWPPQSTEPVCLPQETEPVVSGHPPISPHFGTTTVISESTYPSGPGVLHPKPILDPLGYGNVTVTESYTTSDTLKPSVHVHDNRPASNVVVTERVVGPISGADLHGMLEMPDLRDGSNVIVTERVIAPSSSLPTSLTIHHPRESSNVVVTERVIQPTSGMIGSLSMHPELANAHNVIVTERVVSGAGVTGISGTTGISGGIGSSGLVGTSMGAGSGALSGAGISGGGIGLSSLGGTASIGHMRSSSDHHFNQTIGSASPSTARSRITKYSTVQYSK

[4] = target: T3, recombinant His-tagged murine RAGE protein (ab276858 from Abcam) (murine, UniProt Q62151 23-342, limits assumed); assay: BLI, ANDbody on anti-human IgG Fc biosensors, murine RAGE at 150 nM then murine Notch2 NRR at 150 nM
T3 construct: also called murine RAGE antigen; not shown: His tag
T3 sequence (Q62151 23-342 limits assumed): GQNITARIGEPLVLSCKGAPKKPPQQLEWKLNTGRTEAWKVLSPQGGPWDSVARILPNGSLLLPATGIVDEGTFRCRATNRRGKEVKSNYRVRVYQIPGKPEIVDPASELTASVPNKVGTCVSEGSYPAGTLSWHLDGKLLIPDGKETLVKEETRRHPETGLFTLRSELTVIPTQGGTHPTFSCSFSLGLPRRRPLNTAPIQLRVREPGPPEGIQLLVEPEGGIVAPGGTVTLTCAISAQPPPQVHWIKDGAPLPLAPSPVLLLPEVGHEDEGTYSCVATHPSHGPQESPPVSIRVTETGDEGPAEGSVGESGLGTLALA
Procedure: To test simultaneous dual antigen binding of the Notch2/RAGE ANDbodies by BLI, PRO051, PRO052 and PRO053, along with monovalent parental antibody controls were immobilized on anti-human IgG Fc biosensors and dipped into the recombinant His-tagged murine RAGE protein at 150 nM, followed by a second association step into wells containing recombinant murine Notch2 NRR at 150 nM to measure dual antigen binding. The dissociation rate was then measured by dipping the biosensors into buffer.

binding result [1]: binds
B1: PRO061 (anti-CDH17 antibody MAB8524 on a human IgG1 LALA-PG backbone, kappa light chain) (antibody, V domains shown)
VH: QSLEESGGRLVTPGTPLTLTCTVSGFSLTSYDMNWVRQAPGKGLEWIGVVRGSGRTYYASWAKGRFTIARTSSTTVDLKMTSLTTGDTATYFCARGDANNNYYEFDIWGPGTLVTVSS
VL: QDMTQTPSPVSAAVGGTVTINCQSSQSVYGDAWLSWFQQKPGQPPKLLIYSASTLASGVPSRFKGSGSGTQFTLTISDLESDDAATYYCAGGYDGINDIRAFGGGTEVVVKR

increase in potency of IL-10 signaling (SEAP) on HEK-BLUE IL-10/DSG1 cells against parental HEK-BLUE IL-10 cells [3]: ~15 fold
B3: PRO058 (IL-10/DSG1 ANDbody in which monomeric IL-10 replaces one Fab of the anti-DSG1 mAb; functionally equivalent to PRO026, with a substitution in the Fc … (other)
heavy: EVQLVESGGGLVQPGRSLRLSCAASGFTFDDYAMHWVRQAPGKGLEWVSGISWNSGSIDYADSVKGRFTISRDNAKNSLYLQMNSLRVEDTALYYCAKDGSRVFGVGGGFDFWGQGTMVTVSSASTKGPSVFPLAPSSKSTSGGTAALGCLVKDYFPEPVTVSWNSGALTSGVHTFPAVLQSSGLYSLSSVVTVPSSSLGTQTYICNVNHKPSNTKVDKKVEPKSCDKTHTCPPCPAPEAAGGPSVFLFPPKPKDTLMISRTPEVTCVVVDVSHEDPEVKFNWYVDGVEVHNAKTKPREEQYNSTYRVVSVLTVLHQDWLNGKEYKCKVSNKALGAPIEKTISKAKGQPREPQVYTLPPSRDELTKNQVKLTCLVKGFYPSDIAVEWESNGQPENNYKTTPPVLDSDGSFFLYSSLTVDKSRWQQGNVFSCSVMHEALHNHYTQKSLSLSPG
light: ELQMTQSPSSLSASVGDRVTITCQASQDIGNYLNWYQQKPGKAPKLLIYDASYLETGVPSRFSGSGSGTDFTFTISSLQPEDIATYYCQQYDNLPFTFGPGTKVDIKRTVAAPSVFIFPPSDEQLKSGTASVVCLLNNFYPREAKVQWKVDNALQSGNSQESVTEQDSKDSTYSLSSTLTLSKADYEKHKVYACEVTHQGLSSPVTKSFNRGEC
chain: SPGQGTQSENSCTHFPGNLPNMLRDLRDAFSRVKTFFQMKDQLDNLLLKESLLEDFKGYLGCQALSEMIQFYLEEVMPQAENQDPDIKAHVNSLGENLKTLRLRLRRCHRFLPCENGGGSGGKSKAVEQVKNAFNKLQEKGIYKAMSEFDIFINYIEAYMTMKIRNGGGGSGGGGSDKTHTCPPCPAPEAAGGPSVFLFPPKPKDTLMISRTPEVTCVVVDVSHEDPEVKFNWYVDGVEVHNAKTKPREEQYNSTYRVVSVLTVLHQDWLNGKEYKCKVSNKALGAPIEKTISKAKGQPREPQVYTLPPSRDELTKNQVSLTCLVSGFYPSDIAVEWESNGQPENNYKTTPPVLDSDGSFKLYSKLTVDKSRWQQGNVFSCSVMHEALHNRFTQKSLSLSPG

binding result [4]: binds
B6: PRO053 (Notch2/RAGE ANDbody made by controlled Fab arm exchange of PRO036 K409R and PRO002 F405L) (bispecific antibody)
heavy 1: not shown
light 1: DIQMTQSPSSLSASVGDRVTITCRASQSVRSFLAWYQQKPGKAPKLLIYRASIRASGVPSRFSGSGSGTDFTLTISSLQPEDFATYYCQQYYISPWTFGQGTKVEIKRTVAAPSVFIFPPSDEQLKSGTASVVCLLNNFYPREAKVQWKVDNALQSGNSQESVTEQDSKDSTYSLSSTLTLSKADYEKHKVYACEVTHQGLSSPVTKSFNRGEC
heavy 2: not shown
light 2: DIQMTQSPSSLSASVGDRVTITCRASQDVGIYVNWFQQKPGKAPRRLIYRATNLADGVPSRFSGSRSGTDFTLTISSLQPEDFATYYCLEFDEHPLTFGGGTKVEIKRTVAAPSVFIFPPSDEQLKSGTASVVCLLNNFYPREAKVQWKVDNALQSGNSQESVTEQDSKDSTYSLSSTLTLSKADYEKHKVYACEVTHQGLSSPVTKSFNRGEC
notes: copies: 1 + 1 + 1 + 1

Second part, the binder before the results:

B2: PRO026 (IL-10/DSG1 ANDbody: monomeric IL-10 replacing one Fab of the anti-DSG1 mAb) (other)
heavy: B3 heavy
light: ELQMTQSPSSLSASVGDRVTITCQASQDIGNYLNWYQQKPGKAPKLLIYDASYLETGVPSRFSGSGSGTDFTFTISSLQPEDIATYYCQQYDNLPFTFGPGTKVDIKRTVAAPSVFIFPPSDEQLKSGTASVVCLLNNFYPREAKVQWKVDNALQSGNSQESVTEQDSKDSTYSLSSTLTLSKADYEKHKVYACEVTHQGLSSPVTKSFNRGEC
chain: B3 chain with R391H, F392Y
EC50 (pM), HEK-BLUE IL-10 signaling assay (SEAP) [2]: 750 pM

B4: PRO027 (IL-10/DSG1 ANDbody: IL-10 dimer replacing one Fab of the anti-DSG1 mAb) (other)
heavy: B3 heavy
light: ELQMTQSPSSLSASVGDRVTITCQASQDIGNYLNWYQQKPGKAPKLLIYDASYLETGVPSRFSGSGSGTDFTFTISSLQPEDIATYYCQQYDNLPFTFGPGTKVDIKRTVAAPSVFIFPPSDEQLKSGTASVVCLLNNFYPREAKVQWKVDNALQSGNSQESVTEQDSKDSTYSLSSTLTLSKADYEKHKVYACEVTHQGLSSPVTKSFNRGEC
chain: SPGQGTQSENSCTHFPGNLPNMLRDLRDAFSRVKTFFQMKDQLDNLLLKESLLEDFKGYLGCQALSEMIQFYLEEVMPQAENQDPDIKAHVNSLGENLKTLRLRLRRCHRFLPCENKSKAVEQVKNAFNKLQEKGIYKAMSEFDIFINYIEAYMTMKIRNGGGSGGGSPGQGTQSENSCTHFPGNLPNMLRDLRDAFSRVKTFFQMKDQLDNLLLKESLLEDFKGYLGCQALSEMIQFYLEEVMPQAENQDPDIKAHVNSLGENLKTLRLRLRRCHRFLPCENKSKAVEQVKNAFNKLQEKGIYKAMSEFDIFINYIEAYMTMKIRNGGGGSGGGGSDKTHTCPPCPAPEAAGGPSVFLFPPKPKDTLMISRTPEVTCVVVDVSHEDPEVKFNWYVDGVEVHNAKTKPREEQYNSTYRVVSVLTVLHQDWLNGKEYKCKVSNKALGAPIEKTISKAKGQPREPQVYTLPPSRDELTKNQVSLTCLVSGFYPSDIAVEWESNGQPENNYKTTPPVLDSDGSFKLYSKLTVDKSRWQQGNVFSCSVMHEALHNHYTQKSLSLSPG
EC50 (pM), HEK-BLUE IL-10 signaling assay (SEAP) [2]: 19 pM

B5: PRO052 (Notch2/RAGE ANDbody made by controlled Fab arm exchange of PRO035 K409R and PRO002 F405L) (bispecific antibody)
heavy 1: not shown
light 1: B6 light 1 with V29N, S31R, R50G, I53S, W96L
heavy 2: not shown
light 2: B6 light 2
notes: copies: 1 + 1 + 1 + 1
binding result [4]: binds

B7: PRO051 (Notch2/RAGE ANDbody made by controlled Fab arm exchange of PRO034 K409R and PRO002 F405L) (bispecific antibody)
heavy 1: not shown
light 1: not shown
heavy 2: not shown
light 2: B6 light 2
notes: copies: 1 + 1 + 1 + 1
binding result [4]: binds
